Here are results for one molecule from US10376603B2, “Engineered fluorinated biomaterials” (New York University, priority 2015, dated 2019).

Holding throughout (type): physicochemical
Data set [1] can be described thus: UV-Vis temperature transition (Tt) at 320 nm. The note with it: 50 mM Na2HPO4, 0.5 M NaCl, pH 8.0. The procedure:
Proteins were characterized for their temperature transition (Tt) behavior at a wavelength of 320 nm using a UV-Vis Cary-50 (Varian Inc., Cary, N.C.) equipped with a TC125 temperature regulator (Quantum Northwest, Liberty Lake, Wash.). Samples were heated at a rate of 1° C./minute from 15° C. to 85° C. The Tt was determined by taking the first derivative of the normalized absorbance (320 nm) as a function of temperature.

The nature of data set [2]: Doxorubicin loading/encapsulation by gel filtration and absorbance at 485 nm. As to conditions: 100 μM free doxorubicin, 4° C., 2 hours. The procedure:
A mixture of 100 μM free doxorubicin (DOX) (see the extraction method below) and either CE2-RGD or CE2-RGD-TFL and standards (100 μM, 75 μM, 50 μM, 25 μM, 10 μM, 5 μM and 0 μM) were incubated at 4° C. for 2 hours in the dark. After this incubation period, the mixtures were subjected to G-25 Sephadex (Sigma-Aldrich) gel filtration chromatography with fifteen elutions of 50 mM Na2HPO4, 0.5 M NaCl, pH 8.0 at room temperature. The eluted fractions were subjected to absorbance readings ranging from 420-600 nm (Molecular Devices Spectramax M2). The eluted fraction with highest absorbance reading at 485 nm was incorporated in the standard curve trendline equation to determine the total concentration of DOX bound to the protein. That protein sample was also subjected to the BCA assay enhanced protocol to determine the total protein concentration.
Extraction of DOX from a doxorubicin-HCl (DOX-HCl) was required to achieve free hydrophobic doxorubicin for pore encapsulation. […] The final concentration of free DOX was determined by generating a standard curve from absorbance of DOX-HCl from 420-600 nm and incorporating the free DOX into the trendline equation. The absorbance measurement for free DOX concentration determination was taken at 485 nm.
(SEC sorts molecules by how far they enter the pores of the column.)

The nature of data set [3]: Transmission electron microscopy of particles. The note with it: 0.5 mg/mL. As to the method:
Transmission electron microscopy (TEM) experiments were undertaken to visualize and confirm particle sizes. The CE2-RGD-TFL (0.5 mg/mL) was heated to 20° C. or 50° C. for 1.5 hours followed by application of the protein onto copper square mesh TEM grids and 1% uranyl acetate negative staining. The TEM grids were imaged using a FEI Titan Halo 300 kV electron microscope.

Data set [4] in a line: Circular dichroism secondary structure. As to the method:
Circular dichroism (CD) spectroscopy was used to confirm the secondary structure. This was accomplished using a Jasco J-815 CD spectrometer with a PTC-423 S single position Peltier temperature control system. For CD experiments assessing the protein structure alone, protein concentrations were kept constant at 0.200 mg/mL in of 50 mM Na2HPO4, 0.5 M NaCl, pH 8.0. The wavelength spectrum was measured over the range of 200-300 nm with a bandwidth (step size) of 1 nm. The scanning mode was continuous at 20 nm/minute. All wavelength CD runs were conducted at 4° C.
In terms of calculations for CD analysis, molar residue ellipticity (θMRE) was calculated from ellipticity (θ) using the following equation: (1) θMRE=θ/(10*Protein Conc.*Path Length*Length of Sequence)

A short description of data set [5]: Dynamic light scattering as a function of temperature. The note with it: doxorubicin loaded versus unloaded. As to the method: Dynamic light scattering (DLS) measurements were performed on a Zetasizer Nano Series model Nano ZS90 in a type 21 quartz cuvette with the applied settings: material protein (refractive index 1.450), absorption 0.001, dispersant PBS with a viscosity of 1.0200 cP and refractive index of 1.335. Measurements were taken in triplicates, conducting 10 runs for each measurement, with a delay time of 2 seconds. Approximately, 1.0 mL of 0.5, 0.75 or 1.0 mg/mL CE2-RGD-TFL or CE2-RGD in 50 mM Na2HPO4, 0.5 M NaCl, pH 8.0 was then added to the cell.

B1: CE2-RGD-TFL: fluorinated protein block copolymer, SEQ ID NO:18: COMPcc domain flanked by RGD linkers plus elastin-like domain; all 11 leucines as 5,5,5-trifluoroleucine (protein)
chain: MRGSHHHHHHGSACELAARGDATATATATAACGDLAPQMLRELQETNAALQDVRELLRQQVKEITFLKNTVMESDASGLQAARGDATATATATAVDKPIAASAVPGVGVPGVGVPGFGVPGVGVPGVGVPGVGVPGVGVPGFGVPGVGVPGVGVPLEGSGTGAKLN
modifications: all leucines as 5,5,5-trifluoroleucine
notes: all 11 leucines as 5,5,5-trifluoroleucine
For B1, the “Tt (transition temperature)” value in data set [1] (Conc. 0.20 mg/mL) was 52.04 ± 0.84 °C; in data set [1] (Conc. 0.50 mg/mL), 47.87 ± 0.72 °C; in data set [1] (Conc. 0.75 mg/mL), 46.36 ± 0.03 °C; in data set [1] (Conc. 1.00 mg/mL), 45.71 ± 0.51 °C. For the same molecule, the “available doxorubicin encapsulated upon saturation” value in data set [2] was 49.1%. For the same molecule, the “doxorubicin loading per milligram of protein” value in data set [2] was 29.90±2.68 μg per milligram. In data set [3] (50° C. for 1.5 hours), the “particle appearance (TEM)” value was “amorphous aggregates of no discernible uniformity in size”. For the same molecule, the “particle diameter (TEM)” value in data set [3] (1.5 hour incubation at 20° C.) was found to be 30 nm. For the same molecule, in data set [4] (0.200 mg/mL, 4° C.), the “secondary structure (circular dichroism) versus CE2-RGD” value was “less structure”. For the same molecule, the “secondary structure (circular dichroism) upon loading of doxorubicin” value in data set [4] (doxorubicin loaded versus unloaded) is “increase in secondary structure”. Also, the “onset of temperature-driven coacervation (DLS) upon loading of doxorubicin” value in data set [5] is on record as “delay in the onset of temperature-driven coacervation”.
